Assay results: patent US20240391996A1

Legend:
[1] = biological target: recombinant human GH (Pharmaceutical and Medical Device Regulatory Science Society of Japan) (human) (UniProt P01241); experiment: cell-based or functional assay
[2] = biological target: recombinant human GH (Pharmaceutical and Medical Device Regulatory Science Society of Japan) (human) (UniProt P01241); experiment: GH-GHR binding inhibition ELISA: biotin-labeled GH (5.5 ng/mL) on captured GHR-hFc, antibody varied

recombinant human GH (Pharmaceutical and Medical Device Regulatory Science Society of Japan) (human), sequence (P01241 27-217 limits assumed): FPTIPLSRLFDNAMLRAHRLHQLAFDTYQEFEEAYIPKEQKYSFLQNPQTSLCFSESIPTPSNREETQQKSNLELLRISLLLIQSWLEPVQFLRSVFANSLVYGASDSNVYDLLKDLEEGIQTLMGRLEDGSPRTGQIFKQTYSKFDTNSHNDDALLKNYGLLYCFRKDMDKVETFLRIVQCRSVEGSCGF

GH-dependent Nb2 cell proliferation inhibitory activity (IC50) [1]: 21.5 nM | IC50 [2]: 6.86 nM
Substance: anti-GH mouse mAb (MAB1067, R&D Systems, Inc.) (antibody)
